Source: patent publication US20020160013A1 (RECEPTRON, published 2002)

T1: GLUT4 (rat, UniProt P19357 1-509)
T1 sequence (looked up): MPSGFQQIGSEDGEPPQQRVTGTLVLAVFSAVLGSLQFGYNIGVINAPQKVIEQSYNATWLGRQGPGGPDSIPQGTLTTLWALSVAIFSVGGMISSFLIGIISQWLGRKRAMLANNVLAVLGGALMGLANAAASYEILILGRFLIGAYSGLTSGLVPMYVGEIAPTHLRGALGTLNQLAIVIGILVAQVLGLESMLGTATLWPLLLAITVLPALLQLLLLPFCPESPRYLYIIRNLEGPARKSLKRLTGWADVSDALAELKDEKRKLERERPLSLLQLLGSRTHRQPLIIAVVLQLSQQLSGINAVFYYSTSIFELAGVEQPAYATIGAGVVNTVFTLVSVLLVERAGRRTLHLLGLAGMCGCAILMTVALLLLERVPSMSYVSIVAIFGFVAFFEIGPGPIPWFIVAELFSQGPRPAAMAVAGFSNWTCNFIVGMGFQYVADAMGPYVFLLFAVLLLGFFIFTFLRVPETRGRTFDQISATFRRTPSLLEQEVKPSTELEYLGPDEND


Key:
Assay in all cases: cell-based or functional assay
[1] = molecular target: Leptin Receptor, long form (UniProt P48357)
Leptin Receptor, long form, sequence (P48357 22-1165): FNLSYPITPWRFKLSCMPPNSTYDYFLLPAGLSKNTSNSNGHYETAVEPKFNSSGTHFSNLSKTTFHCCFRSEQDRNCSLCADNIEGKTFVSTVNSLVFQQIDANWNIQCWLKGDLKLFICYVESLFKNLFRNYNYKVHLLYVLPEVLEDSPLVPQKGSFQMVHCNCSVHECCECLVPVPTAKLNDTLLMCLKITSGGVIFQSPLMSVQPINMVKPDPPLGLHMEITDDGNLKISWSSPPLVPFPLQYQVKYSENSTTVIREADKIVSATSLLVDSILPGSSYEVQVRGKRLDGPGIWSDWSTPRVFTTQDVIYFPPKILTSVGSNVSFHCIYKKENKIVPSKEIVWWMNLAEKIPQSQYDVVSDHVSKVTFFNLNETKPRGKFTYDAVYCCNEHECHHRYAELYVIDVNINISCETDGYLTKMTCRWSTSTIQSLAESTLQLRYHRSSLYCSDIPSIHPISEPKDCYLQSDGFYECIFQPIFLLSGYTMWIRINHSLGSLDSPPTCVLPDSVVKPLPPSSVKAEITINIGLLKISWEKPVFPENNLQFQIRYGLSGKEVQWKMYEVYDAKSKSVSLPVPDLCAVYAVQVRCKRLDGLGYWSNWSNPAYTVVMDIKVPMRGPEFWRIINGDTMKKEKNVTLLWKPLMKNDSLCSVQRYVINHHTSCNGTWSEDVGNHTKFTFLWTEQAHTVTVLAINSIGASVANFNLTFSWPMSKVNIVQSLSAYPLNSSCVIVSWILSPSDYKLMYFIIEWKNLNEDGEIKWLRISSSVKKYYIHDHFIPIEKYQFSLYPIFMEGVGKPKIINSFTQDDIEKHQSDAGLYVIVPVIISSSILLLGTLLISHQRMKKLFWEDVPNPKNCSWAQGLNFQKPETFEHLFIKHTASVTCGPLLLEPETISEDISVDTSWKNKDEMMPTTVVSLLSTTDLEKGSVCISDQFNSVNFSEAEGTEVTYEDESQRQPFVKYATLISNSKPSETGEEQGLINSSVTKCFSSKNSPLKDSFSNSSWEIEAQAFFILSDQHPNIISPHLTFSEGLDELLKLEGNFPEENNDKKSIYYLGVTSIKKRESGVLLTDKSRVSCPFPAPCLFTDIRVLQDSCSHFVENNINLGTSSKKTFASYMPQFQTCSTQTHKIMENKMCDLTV

[2] = molecular target: Leptin Receptor, long form, P48357
Leptin Receptor, long form, P48357, sequence (P48357 22-1165): as above

GLUT4 = molecular target: T1, GLUT4
human insulin receptor = human insulin receptor (human, UniProt P06213 28-1382)
[3] = molecular target: mutated form of the insulin receptor, deletion of residues 713 to 740 (human, UniProt P06213 28-1382)

percent internalized receptor at 5 min with 10 µM peptide (125I-insulin, acid wash) (human insulin receptor) [%] | percent internalized receptor at 15 min with 10 µM peptide (125I-insulin, acid wash) (human insulin receptor) [%] | percent internalized receptor at 30 min with 10 µM peptide (125I-insulin, acid wash) (human insulin receptor) [%] | percent internalized receptor at 60 min with 10 µM peptide (125I-insulin, acid wash) (human insulin receptor) [%] | percent internalized receptor at 5 min with 10 µM peptide (125I-insulin, acid wash) [3] [%] | percent internalized receptor at 15 min with 10 µM peptide (125I-insulin, acid wash) [3] [%] | percent internalized receptor at 30 min with 10 µM peptide (125I-insulin, acid wash) [3] [%] | percent internalized receptor at 60 min with 10 µM peptide (125I-insulin, acid wash) [3] [%] | further results | Molecule
 |  |  |  |  |  |  |  | activation (phosphorylation) of JAK2 with 1 ng/ml of OB alone, quantified western blot (arbitrary units) [1]: 2 | Leptin (from UniProt P41159 22-167) (ligand)
 |  |  |  |  |  |  |  | activation (phosphorylation) of JAK2 with 1 ng/ml of OB and 30 µM LRp together, quantified western blot (arbitrary units) [2]: 16; activation (phosphorylation) of JAK2 with 30 µM LRp alone, quantified western blot (arbitrary units) [2]: 8 | KKENKIVPSKEIVWWMNLAEKIP [Leptin Receptor derived peptide]
6 | 2 | 6 | 2 | 5 | -2 | 0 | 2 | enhancement of glucose uptake in rat adipose cells, insulin + 10 µM pepIR (GLUT4): 12 fold | KTDSQILKELEESSFRKTFEDYLH [Insulin receptor derived peptide]
 |  |  |  |  |  |  |  | enhancement of glucose uptake in rat adipose cells, 10 nM insulin + GLUT4pep (GLUT4): 24 fold | TWLGRQGPEGPSSIPPGTLTTLW [GLUT4pep]
5 | 9 | 14 | 17 | -1 | 0 | 2 | 1 |  | GNEQSFRVDLRTLLRYAGGGNEQSFRVDLRTLLRYA [DS-A85]
